Reference: paper PMC11257959

System: NG-RYBP (Homo sapiens)
Assay: EMSA
Conditions: n=3; almost fourfold; EMSA: 25 mM Tris-HCl pH 7.5, 50 mM NaCl, 0.05% Tween 20, 5 mM MgCl2, 4% glycerol, 0.2 nM nucleosome, 10 min on ice, 1% agarose 0.4x TBE; cryo-EM binding: 50 mM …

**Q.** For Nuc (EMSA, 201 bp 601), which binding signal (fold lower affinity than NucH2Aub1) is on record?
**A.** 4
